The results in this text go back to patent US20220380446A1 (ABL BIO, published 2022).

In experiment [1] the target is T1, human α-synuclein pre-formed fibrils (Human Alpha Synuclein Pre-formed Fibrils Type II, StressMarq SPR-317) (human, UniProt P37840 1-140). The experiment can be described thus: sandwich ELISA, antibody coated, α-syn PFF added, 7B7-biotin detection. The procedure: Specifically, the antibodies were diluted with PBS by six-fold serial dilution from 400 nM to 0.009 nM. The diluted antibodies were added to a 96-well plate at 100 μL/well for coating. The plate was sealed and incubated at 4° C. for 16 hours. After washing with phosphate-buffered saline with Tween® (PBS-T; 0.05% Tween® 20) five times, the plate was blocked with 5% BSA in PBS 200 μL/well at 37° C. for 2 hours. After washing with PBS-T five times, α-syn PFF (2 μg/mL, 100 μL/well in 2% BSA in PBS) was added to the plate and incubated at 37° C. for 2 hours. After washing with PBS-T five times, 7B7-biotin antibody (anti-α-syn antibody; 1 μg/mL/100 μL/well, in 2% BSA in PBS) was added and incubated at 37° C. for 2 hours. After washing with PBS-T five times, the plate was incubated with horseradish peroxidase (HRP)-bound streptavidin in PBS with 2% BSA (1:5000, 1 mg/mL stock, 20 ng/well, 100 μL/well) at 37° C. for 1 hour. After washing with PBS-T five times, 3,3′,5,5′-tetramethylbenzidine (TMB) (100 μL/well) was added and incubated at room temperature for 5 minutes. The reaction was stopped by the addition of 0.5 N H₂SO₄ (50 μL/well). Optical absorbance at 450 nm was measured by using a plate reader, with absorbance at 650 nm subtracted from the reading.
A general note: An ELISA detects its analyte on a solid surface through an enzyme-linked reagent.

In experiment [2] the target is T1, human α-synuclein pre-formed fibrils …. The experiment can be described thus: SPR Biacore T200, antibody captured on Protein A chip, α-syn PFF analyte, 1:1 model. The procedure: (§1) The equipment used was Biacore® (GE Healthcare, Model T200). Protein A (GE Healthcare, Cat: 29-1275-56) was used as a chip, 10 mM glycine-HCl pH 1.5 (GE Healthcare, Cat: BR-1003-54) was used as a regeneration buffer, and HBS-EP was used as a running buffer and an analyte dilution and sample dilution buffer. […] A capture phase was carried out at a contact time of 60 seconds and a flow rate of 30 μL/min was used for a stabilization period of 60 seconds, with the target resonance units (RU) of fibril set to 10 (theoretical). In an association phase, the association time was set to 60 seconds and a flow rate was set to 60 μL/min. In a dissociation phase, the dissociation time was set to 180 seconds, and a flow rate was set to 60 μL/min. In a regeneration phase, the flow rate was set to 30 μL/min, and the regeneration time was set to 60 seconds. A 1:1 binding model was used for fitting, and the Biacore® T200 Evaluation software (GE Healthcare) was used for the evaluation.
Background: Surface plasmon resonance follows binding to a sensor surface in real time, without labels.

The target is the same in experiment [3]. Briefly: SPR Biacore, antibody captured on anti-hFab CM3 chip, α-syn PFF analyte, single-cycle kinetics, 1:1 model. How it is done:
(§2) The equipment used was Biacore®. Anti-hFab (Sigma, I5260-1ML) diluted in acetate buffer (pH 5.0) was immobilized on the surface of an CM3 chip (GE Healthcare) by amine coupling. […] All procedures in association and dissociation phases were done in single-cycle kinetics. A 1:1 binding model was used for fitting, and the Biacore® T200 Evaluation software was used for the evaluation.

Experiment [4] has the same target. Briefly: SPR (Biacore), antibody captured on anti-hFab CM3 chip, α-syn PFF as analyte (sample PFF-2), single-cycle kinetics, 1:1 Binding fit, 25 °C; Run2. How it is done:
as §2

For experiment [5] the target is unchanged. The experiment can be described thus: SPR Biacore 'as described above', antibody captured, α-syn PFF analyte, 1:1 model.
Experiment [6] shares this target. The experiment can be described thus: SPR Biacore T200, antibody captured on Protein A chip, α-syn PFF analyte, 1:1 model. The procedure:
as §1
This is another data set of the same source.

B1: hu1E4(V1_VL1) x Grabody B (bispecific antibody, human IgG1, kappa)
heavy 1: not shown
heavy 2: not shown
light: DIVMTQTPLSLSVTPGQPASISCRSSQSLVHSNGNTYLHWYLQKPGQSPQLLIYKVSNRFSGVPDRFSGSGSGTDFTLKISRVEAEDVGVYYCSQSTHVPRTFGQGTKLEIKRTVAAPSVFIFPPSDEQLKSGTASVVCLLNNFYPREAKVQWKVDNALQSGNSQESVTEQDSKDSTYSLSSTLTLSKADYEKHKVYACEVTHQGLSSPVTKSFNRGEC
notes: Anti-α-syn/IGF1R bispecific; hole heavy chain (M428L) carries the anti-IGF1R scFv Grabody B at its C-terminus through a (G4S)3 linker; knob heavy chain (M428L) without scFv; also called hu1E4(V1 VL1) × Grabody B; 1E4(Ver.1_VL1) × Grabody B
Take B1: the EC50 (commonly the midpoint of the concentration-response curve) in experiment [1] came to 0.236 nM. Further, the Kd – broadly, a measure of binding affinity in units of concentration – in experiment [2] stood at 0.0293 nM; in experiment [3] it was 0.0379 nM; in experiment [5], 0.025 nM; in experiment [6], 0.0281 nM. For the same molecule, the koff – broadly, the rate constant with which the complex falls apart – worked out at 0.000423 s⁻¹ in experiment [2]; 0.000706 s⁻¹ in experiment [3]; 0.000743 s⁻¹ in experiment [4]; 0.000345 s⁻¹ in experiment [5]; 0.000322 s⁻¹ in experiment [6]. Moreover, the kon – broadly, a measure of how fast the partners come together – is 1.45e+07 M⁻¹ s⁻¹ in experiment [2]; 1.87e+07 M⁻¹ s⁻¹ in experiment [3]; 1.83e+07 M⁻¹ s⁻¹ in experiment [4]; 1.4e+07 M⁻¹ s⁻¹ in experiment [5]; 1.14e+07 M⁻¹ s⁻¹ in experiment [6].
